Reference: patent US20230147657A1 (INSERM INSTITUT NATIONAL DE LA SANT ET DE LA RECHERCHE M …, published 2023)
Values belong to the molecule of their own block, whether it stands above or below them.

What was measured:
human CD45RC [1] = biological target: T1, human CD45RC (human, UniProt P08575 26-1306); assay: cell-based or functional assay
T1 construct: Native protein on human blood leukocytes / PBMC / T cells of healthy volunteers; also called hCD45RC
T1 sequence: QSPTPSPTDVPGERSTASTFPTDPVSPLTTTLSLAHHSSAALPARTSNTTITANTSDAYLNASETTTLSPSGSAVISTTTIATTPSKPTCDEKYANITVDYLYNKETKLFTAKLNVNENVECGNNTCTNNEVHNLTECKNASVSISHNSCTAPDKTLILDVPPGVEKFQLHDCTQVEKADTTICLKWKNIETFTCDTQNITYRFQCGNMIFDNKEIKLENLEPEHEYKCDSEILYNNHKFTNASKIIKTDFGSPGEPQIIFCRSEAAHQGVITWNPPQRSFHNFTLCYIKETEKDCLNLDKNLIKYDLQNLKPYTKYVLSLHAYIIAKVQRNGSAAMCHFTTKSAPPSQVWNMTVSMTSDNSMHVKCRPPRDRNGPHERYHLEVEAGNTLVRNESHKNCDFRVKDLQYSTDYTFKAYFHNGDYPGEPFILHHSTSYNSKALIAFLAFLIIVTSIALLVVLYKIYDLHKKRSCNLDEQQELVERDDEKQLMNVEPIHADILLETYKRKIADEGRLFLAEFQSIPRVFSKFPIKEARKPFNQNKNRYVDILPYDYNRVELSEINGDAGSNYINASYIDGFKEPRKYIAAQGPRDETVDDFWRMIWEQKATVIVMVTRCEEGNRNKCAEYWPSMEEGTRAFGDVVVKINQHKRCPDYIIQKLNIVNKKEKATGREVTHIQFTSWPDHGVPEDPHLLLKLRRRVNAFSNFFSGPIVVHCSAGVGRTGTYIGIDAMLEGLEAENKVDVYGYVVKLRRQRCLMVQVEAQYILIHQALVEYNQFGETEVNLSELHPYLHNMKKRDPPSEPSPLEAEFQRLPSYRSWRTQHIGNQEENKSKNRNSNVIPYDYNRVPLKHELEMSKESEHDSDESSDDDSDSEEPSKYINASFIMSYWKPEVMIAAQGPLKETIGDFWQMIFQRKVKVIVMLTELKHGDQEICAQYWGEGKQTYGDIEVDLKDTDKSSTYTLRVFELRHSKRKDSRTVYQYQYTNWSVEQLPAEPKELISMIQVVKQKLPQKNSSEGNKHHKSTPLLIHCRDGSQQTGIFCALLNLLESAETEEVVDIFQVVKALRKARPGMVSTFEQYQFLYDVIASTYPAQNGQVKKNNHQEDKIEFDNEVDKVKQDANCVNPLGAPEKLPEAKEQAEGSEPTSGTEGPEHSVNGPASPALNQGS

[2] = biological target: T2, human CD45RC in solubilized cell membranes (CD45RC^high PBMCs or CHO cells expressing CD45RC) (human, UniProt P08575 26-1306); assay: SPR (BIAcore 3000 / T200), ABIS-45RC immobilized on CM5 chip, solubilized cell membranes as analyte, 25 °C, single cycle kinetics and calibration free concentration analysis
T2 sequence: T1 sequence
Description: Briefly, 1×10⁷ CD45RC^high PBMCs or CHO cells expressing CD45RC after plasmid transfection were solubilized using the Mem-PER membrane isolation kit (Thermo-fisher).

human CD45RC [3] = biological target: T1, human CD45RC; assay: flow cytometry on T cells of human PBMC; biotin anti-human IgG + streptavidin PerCP-Cy5.5

apoptosis of human T cells after 18 h with transduced Jurkat cells (annexin V / DAPI) (human CD45RC [1]): 7 to 8%
Molecule: Ctrl-CAR (control CAR having a different antigenic specificity) (receptor)

Kd [2]: 50 nM | koff [2]: 0.0144 s⁻¹ | kon [2]: 291000 M⁻¹ s⁻¹ | % of T cells in the CD45RC gate at 1 µg/mL (human CD45RC [3]): 61.3% | % of T cells in the CD45RC gate at 2 µg/mL (human CD45RC [3]): 61.1%
B1: ABIS-45RC (antibody, mouse IgG1, kappa, V domains shown)
VH: QVQLQQSGAELVRPGTSVKMSCKAAGYTFTNYYIGWVKQRPGHGLEWIGDIFPGGDYANSNEKFKGKATLTADTSSSTAYMQLSSLTSEDSAIYYCVRRNFDYWGQGTTLTVSS
VL: QIVLTQSPTIMSASPGEKVTITCSASSSVSYMHWFQQKTGTSPRLWIYNTSNLPSGVPARFSGSGSGTSYSLTISRMEAEDAATYYCQQRSSYPLTFGAGTKLELKR
notes: also called murine ABIS-45RC; ABIS-CD45RC
